Results as given in patent US20020127222A1 (VEGENICS, published 2002).

T1: VEGFR-3-Ig (extracellular domain of human VEGFR-3 fused to the Fc portion of human IgG1) (human, UniProt P35916 25-775)
T1 construct: extracellular domain; Expressed in 293T cells, captured on protein A Sepharose; not shown: Fc portion of human IgG1
T1 sequence (looked up): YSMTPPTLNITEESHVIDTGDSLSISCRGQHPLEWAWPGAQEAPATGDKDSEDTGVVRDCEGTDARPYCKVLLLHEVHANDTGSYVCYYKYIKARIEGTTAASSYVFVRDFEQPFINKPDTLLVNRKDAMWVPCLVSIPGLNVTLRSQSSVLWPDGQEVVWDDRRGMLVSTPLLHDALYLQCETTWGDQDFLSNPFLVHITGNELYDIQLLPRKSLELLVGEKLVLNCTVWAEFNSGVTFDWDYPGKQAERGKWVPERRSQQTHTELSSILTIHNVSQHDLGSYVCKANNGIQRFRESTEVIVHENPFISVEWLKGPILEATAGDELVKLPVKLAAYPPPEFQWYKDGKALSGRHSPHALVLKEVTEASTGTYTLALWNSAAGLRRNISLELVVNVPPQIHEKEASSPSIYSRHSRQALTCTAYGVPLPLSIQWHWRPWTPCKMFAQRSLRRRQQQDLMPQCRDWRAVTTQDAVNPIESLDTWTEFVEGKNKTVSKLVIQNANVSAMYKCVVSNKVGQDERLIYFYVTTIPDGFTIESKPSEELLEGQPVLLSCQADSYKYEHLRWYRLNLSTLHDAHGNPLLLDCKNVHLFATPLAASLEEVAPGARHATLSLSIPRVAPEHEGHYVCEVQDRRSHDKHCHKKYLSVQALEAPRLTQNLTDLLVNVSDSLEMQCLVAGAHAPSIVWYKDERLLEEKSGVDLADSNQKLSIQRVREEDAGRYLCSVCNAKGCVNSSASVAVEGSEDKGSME


What was measured:
[1] = molecular target: chimeric receptor containing the extracellular domain of VEGFR-2, on Ba/F3 cells; assay: cell-based or functional assay
[2] = molecular target: T1, VEGFR-3-Ig (extracellular domain of …); assay: precipitation of 35S-labeled ligand from conditioned medium by receptor-Ig on protein A Sepharose, SDS-PAGE
Description: (§1) To further assess the interactions between VEGF-D and the VEGF receptors, VEGF-DΔNΔC was tested for its capacity to bind to soluble immunoglobulin fusion proteins comprising the extracellular domains of human VEGFR-1, human VEGFR-2 and human VEGFR-3. The corresponding fragment of VEGF-C, VEGF-CΔNΔC, was used for comparison. For binding experiments, 293T human embryonal kidney cells were transfected with plasmids encoding the soluble receptor-immunoglobulin fusion proteins VEGFR-1-Ig, VEGFR-2-Ig or VEGFR-3-Ig using the calcium-phosphate (Ca-phosphate) method. In these fusion proteins, the extracellular domain of the relevant VEGF receptor is fused to the Fc portion of human IgG₁. The cells were incubated for 24 hours after transfection, washed with Dulbecco's Modified Eagle's Medium (DMEM) containing 0.2% bovine serum albumin (BSA) and starved for 24 hours. Media were then collected and clarified by centrifugation, and fusion proteins were precipitated using protein A Sepharose beads. […] Metabolic labeling of 293-EBNA cells was carried out essentially as described (Joukov et al., 1997). The Sepharose beads were then washed twice with binding buffer (0.5% BSA, 0.02% Tween 20, 1 μg/ml heparin in phosphate buffered saline (PBS)) at 4° C. and once with PBS, boiled in Laemmli sample buffer, and proteins were then analyzed by SDS-PAGE.
(§2) In FIG. 3, precipitation of labeled VEGF₁₆₅, VEGF-CΔNΔC and VEGF-DΔNΔC by VEGFR-1-Ig, VEGFR-2-Ig and VEGFR-3-Ig was carried out as described above. The fusion proteins used for the precipitations are shown to the right. “Vector” denotes results of precipitations from medium derived from cells transfected with expression vector lacking sequence encoding the VEGFs. The molecular weight markers are indicated in kDa

[3] = molecular target: T2, VEGFR-1-Ig (extracellular domain of human VEGFR-1 fused to the Fc portion of human IgG1) (human, UniProt P17948 27-758); assay: as above
T2 construct: extracellular domain; Expressed in 293T cells, captured on protein A Sepharose; not shown: Fc portion of human IgG1
Description: as §1, §2

[4] = molecular target: T3, VEGFR-2-Ig (extracellular domain of human VEGFR-2 fused to the Fc portion of human IgG1) (human, UniProt P35968 20-764); assay: as above
T3 construct: extracellular domain; Expressed in 293T cells, captured on protein A Sepharose; not shown: Fc portion of human IgG1
Description: as §1, §2

[5] = molecular target: the molecule itself; assay: size exclusion chromatography and SDS-PAGE (self-association)

T2 sequence (P17948 27-758): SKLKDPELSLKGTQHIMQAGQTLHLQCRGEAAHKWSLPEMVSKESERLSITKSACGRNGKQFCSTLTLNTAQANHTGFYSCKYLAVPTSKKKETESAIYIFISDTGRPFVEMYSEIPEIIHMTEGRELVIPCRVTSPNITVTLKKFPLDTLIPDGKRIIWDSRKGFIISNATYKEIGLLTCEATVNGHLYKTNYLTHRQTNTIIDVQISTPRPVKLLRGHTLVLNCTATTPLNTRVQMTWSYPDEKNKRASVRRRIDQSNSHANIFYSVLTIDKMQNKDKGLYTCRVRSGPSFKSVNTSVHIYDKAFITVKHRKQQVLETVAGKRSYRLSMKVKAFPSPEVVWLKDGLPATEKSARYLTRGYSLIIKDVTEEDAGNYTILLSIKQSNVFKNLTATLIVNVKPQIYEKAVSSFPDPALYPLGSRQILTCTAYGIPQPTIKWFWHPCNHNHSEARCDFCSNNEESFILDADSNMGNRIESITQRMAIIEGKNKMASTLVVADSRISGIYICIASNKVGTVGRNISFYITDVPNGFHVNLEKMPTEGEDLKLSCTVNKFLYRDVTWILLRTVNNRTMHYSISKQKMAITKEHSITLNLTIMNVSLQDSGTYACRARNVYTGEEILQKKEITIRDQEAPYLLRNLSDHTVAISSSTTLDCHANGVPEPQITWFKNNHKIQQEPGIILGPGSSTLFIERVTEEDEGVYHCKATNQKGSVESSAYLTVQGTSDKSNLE
T3 sequence (P35968 20-764): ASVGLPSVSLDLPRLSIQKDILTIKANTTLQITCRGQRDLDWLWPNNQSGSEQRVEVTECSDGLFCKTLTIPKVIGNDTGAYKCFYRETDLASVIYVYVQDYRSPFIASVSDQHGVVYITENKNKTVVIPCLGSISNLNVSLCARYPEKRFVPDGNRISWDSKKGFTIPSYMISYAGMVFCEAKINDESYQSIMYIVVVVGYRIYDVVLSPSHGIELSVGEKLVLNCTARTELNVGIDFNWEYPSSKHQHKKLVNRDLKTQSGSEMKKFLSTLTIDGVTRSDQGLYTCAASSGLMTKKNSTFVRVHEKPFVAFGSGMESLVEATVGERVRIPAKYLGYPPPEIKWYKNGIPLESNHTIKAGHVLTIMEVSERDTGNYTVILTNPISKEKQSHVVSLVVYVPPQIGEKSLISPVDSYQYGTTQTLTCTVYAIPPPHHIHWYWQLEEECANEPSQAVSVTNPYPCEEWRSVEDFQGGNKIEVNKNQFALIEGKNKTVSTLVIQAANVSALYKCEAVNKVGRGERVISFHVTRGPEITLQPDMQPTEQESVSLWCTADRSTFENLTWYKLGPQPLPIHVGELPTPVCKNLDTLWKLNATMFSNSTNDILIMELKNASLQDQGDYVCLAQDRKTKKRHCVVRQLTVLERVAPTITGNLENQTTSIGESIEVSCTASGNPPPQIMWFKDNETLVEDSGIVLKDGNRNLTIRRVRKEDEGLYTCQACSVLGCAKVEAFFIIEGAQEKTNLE

VEGFR-2 binding activity (Ba/F3 cell bioassay) of size exclusion peak 1 (% of that in peak 2) [1]	binding result [2]	binding result [3]	binding result [4]	Molecule	binding result [5]
1	–	–	–	VEGF-DΔNΔC non-covalent homodimer (size exclusion peak 2, 49 kDa) (from UniProt O43915 93-201) (ligand)	–
–	no binding	binds	–	human VEGF165 (ligand, UniProt P15692-4 27-191, looked up, 35S-labeled conditioned medium) APMAEGGGQNHHEVVKFMDVYQRSYCHPIETLVDIFQEYPDEIEYIFKPSCVPLMRCGGCCNDEGLECVPTEESNITMQIMRIKPHQGQHIGEMSFLQHNKCECRPKKDRARQENPCGPCSERRKHLFVQDPQTCKCSCKNTDSRCKARQLELNERTCRCDKPRR	–
–	binds	no binding	binds	VEGF-DΔNΔC (human VEGF-D amino acid residues 93 to 201 tagged with the FLAG octapeptide adjacent to the N-terminus) (ligand, not shown: small tags and cut ends, purified from COS cells for the enzyme immunoassay; human VEGF-D?N?C) FYDIETLKVIDEEWQRTQCSPRETCVEVASELGKSTNTFFKPPCVNVFRCGGCCNEESLICMNTSTSYISKQLFEISVPLTSVPELVPVKVANHTGCKCLPTAPRHPYS	–
–	–	–	–	VEGF-DΔNΔC monomer (size exclusion peak 3, 25 kDa) (ligand, also called VEGF-D?N?C monomer; monomeric form of VEGF-D?N?C; not shown: FLAG octapeptide tag at the N-terminus) FYDIETLKVIDEEWQRTQCSPRETCVEVASELGKSTNTFFKPPCVNVFRCGGCCNEESLICMNTSTSYISKQLFEISVPLTSVPELVPVKVANHTGCKCLPTAPRHPYS	binds
